Legend:
Format in all cases: biochemical
(GR)10 [1] = test: Cleavage of (GR)10 by enzymes in solution (PBS with CaCl2 and MgCl2), LC/MS of GR repeats; details: in solution, activated with 2.5 mM DTT
Experimental: • (GR)10 dipeptide (also (GR)8, (GR)6, (GR)4, (GR)2) were synthetized by solid-phase synthesis by CanPeptide; All peptides are uncapped and supplied lyophilized with TFA as counter ions. Purity was always above 95%. • Buffer: PBS buffer containing CaCl2 and MgCl2. • Stock solution of enzyme (e.g., 10 mg/mL) (prepared per manufacturer instructions) in PBS. Activators added as necessary. • Working solution of protein of the desired concentration (e.g., 100 μg/mL) prepared immediately before use by diluting the stock solution (e.g., 5 μL of 10 mg/mL stock solution) in PBS buffer (e.g., in 495 μL of PBS). Exemplary Procedure Using 50 μM Concentrations of (GR)10
25 μL of a 100 μM solution of (GR)10 was added to each well of a 96-well plate. 25 μL of a solution of enzyme (two times the desired final enzyme concentration) was added, and the plates were incubated at room temperature. At the specified time points (5 minutes, 10 minutes, 30 minutes, 60 minutes, and 180 minutes) 2.5 μL of a 10% TFA solution were added to stop the reaction. For the time 0 min well, the TFA was added to the well before addition of the enzyme. After last time point, all samples were further diluted with 150 μL of dilution solution. The quenched reaction mixtures were analyzed by LC/MS to determine the concentration of GR repeats of different lengths.
The chromatography and mass spectrometry conditions utilized are shown in Table 2 and Table 3, respectively.

(GR)10 [2] = test: (GR)10 digestion with immobilized proteases (NHS-activated agarose resin) in PBS; details: immobilized
Experimental: (§1) Protease solutions were prepared at 2 mg/mL in sterile PBS with calcium, magnesium and 200 μL ([…]) were applied to 100 μL of pre-washed NHS-activated agarose resin in 0.8 mL centrifuge columns. Reactions were left 1.5 hour at room temperature with end-to-end mixing, after which resins were washed with 12 resin volumes of PBS. Unreacted sites were blocked with 500 μL of 1M ethanolamine for 15 minutes at room temperature and resins were further washed with 24 resin volumes. Resins were stored at 4 degrees in 500 μL of PBS containing 0.05% sodium azide as preservative.
110 μL of 50 μM (GR)10 dipeptide repeats prepared in PBS were added to each immobilized protease and incubated 5 minutes at room temperature with end-to-end mixing. Columns were spun down 1 minute at 1,000 Xg to recover digested GR dipeptides. Columns were washed with 110 μL of PBS to increase (GR)10 recovery. This procedure was repeated with 60 minutes digestion time. 100 μL of each samples were transferred to a new tube and 5 μL of 10% TFA followed by 300 μL of Dilution Solution were added. The reaction mixtures were analyzed by LC/MS to determine the concentration of GR repeats of different lengths.

(GR)10 [3] = test: (GR)10 digestion with immobilized proteases in human cerebrospinal fluid (CSF); details: immobilized enzyme
Experimental: as §1
200 μM of (GR)10 were diluted in human cerebrospinal fluid (CSF) and 400 μL were applied to each immobilized proteases. The reaction was incubated 5 minutes at room temperature with end-to-end mixing. Columns were spun down 1 minute at 1,000 Xg to recover digested GR dipeptides. Columns were washed with 12 resin volumes of PBS. The procedure was repeated with 60 minutes digestion time. 100 μL of each samples were transferred to a clean tube, flash-frozen and subsequently used for LC/MS quantification of GR repeats of different lengths. The remaining 300 μL of each samples were flash-frozen and used to assess neuron toxicity.
(GR)10 was digested with exemplary immobilized enzymes as described above in the subsection titled “(GR)10 digestion with immobilized proteases in CSF” of Example 3. Clostripain experiments were conducted with and without DTT activation (no DTT during digestion). The results obtained after 5 and 60 minutes of reaction time are presented in Table 25 and shown in FIG. 5 (commercial and in-house immobilized trypsin), FIG. 6 (immobilized elastase, FIG. 7A (immobilized clostripain without DTT) and FIG. 7 (immobilized clostripain with 2.5 mM DTT).

[4] = 2.5 mM DTT, resin wash from 5 min reaction
[5] = 2.5 mM DTT, resin wash from 60 min reaction
[6] = activated with 2.5 mM DTT, 5 min reaction
[7] = activated with 2.5 mM DTT, 60 min reaction

B1: Clostripain + DTT (protein)
chain: NKNQKVTIMYYCDADNNLEGSLLNDIEEMKTGYKDSPNLNLIALVDRSPRYSSDEKVLGEDFSDTRLYKIEHNKANRLDGKNEFPEISTTSKYEANMGDPEVLKKFIDYCKSNYEADKYVLIMANHGGGAREKSNPRLNRAICWDDSNLDKNGEADCLYMGEISDHLTEKQSVDLLAFDACLMGTAEVAYQYRPGNGGFSADTLVASSPVVWGPGFKYDKIFDRIKAGGGTNNEDDLTLGGKEQNFDPATITNEQLGALFVEEQRDSTHANGRYDQHLSFYDLKKAESVKRAIDNLAVNLSNENKKSEIEKLRGSGIHTDLMHYFDEYSEGEWVEYPYFDVYDLCEKINKSENFSSKTKDLASNAMNKLNEMIVYSFGDPSNNFKEGKNGLSIFLPNGDKKYSTYYTSTKIPHWTMQSWYNSIDTVKYGLNPYGKLSWCKDGQDPEINKVGNWFELLDSWFDKTNDVTGGVNHYQW
(GR)1 (normalized to GR concentration) ((GR)10 [1]; 5 min reaction): 86.8 µM
(GR)2 (normalized to GR concentration) ((GR)10 [1]; 5 min reaction): 113.6 µM
(GR)3 (normalized to GR concentration) ((GR)10 [1]; 5 min reaction): 40.5 µM
(GR)4 (normalized to GR concentration) ((GR)10 [1]; 5 min reaction): 27.2 µM
(GR)5 (normalized to GR concentration) ((GR)10 [1]; 5 min reaction): 12.1 µM
(GR)6 (normalized to GR concentration) ((GR)10 [1]; 5 min reaction): 7.3 µM
(GR)8 (normalized to GR concentration) ((GR)10 [1]; 5 min reaction): 0.0 µM
(GR)10 (normalized to GR concentration) ((GR)10 [1]; 5 min reaction): 5.7 µM
(GR)1 (normalized to GR concentration) ((GR)10 [1]; 60 min reaction): 387.0 µM
(GR)2 (normalized to GR concentration) ((GR)10 [1]; 60 min reaction): 0.0 µM
(GR)3 (normalized to GR concentration) ((GR)10 [1]; 60 min reaction): 0.0 µM
(GR)4 (normalized to GR concentration) ((GR)10 [1]; 60 min reaction): 0.0 µM
(GR)5 (normalized to GR concentration) ((GR)10 [1]; 60 min reaction): 0.0 µM
(GR)6 (normalized to GR concentration) ((GR)10 [1]; 60 min reaction): 0.0 µM
(GR)8 (normalized to GR concentration) ((GR)10 [1]; 60 min reaction): 0.0 µM
(GR)10 (normalized to GR concentration) ((GR)10 [1]; 60 min reaction): 0.0 µM
(GR)1 (normalized to GR concentration) ((GR)10 [2]; [4]): 99.1 µM
(GR)2 (normalized to GR concentration) ((GR)10 [2]; [4]): 0.0 µM
(GR)3 (normalized to GR concentration) ((GR)10 [2]; [4]): 0.0 µM
(GR)4 (normalized to GR concentration) ((GR)10 [2]; [4]): 0.0 µM
(GR)5 (normalized to GR concentration) ((GR)10 [2]; [4]): 0.0 µM
(GR)6 (normalized to GR concentration) ((GR)10 [2]; [4]): 0.0 µM
(GR)8 (normalized to GR concentration) ((GR)10 [2]; [4]): 0.0 µM
(GR)10 (normalized to GR concentration) ((GR)10 [2]; [4]): 0.0 µM
(GR)1 (normalized to GR concentration) ((GR)10 [2]; [5]): 125.6 µM
(GR)2 (normalized to GR concentration) ((GR)10 [2]; [5]): 0.0 µM
(GR)3 (normalized to GR concentration) ((GR)10 [2]; [5]): 0.0 µM
(GR)4 (normalized to GR concentration) ((GR)10 [2]; [5]): 0.0 µM
(GR)5 (normalized to GR concentration) ((GR)10 [2]; [5]): 0.0 µM
(GR)6 (normalized to GR concentration) ((GR)10 [2]; [5]): 0.0 µM
(GR)8 (normalized to GR concentration) ((GR)10 [2]; [5]): 0.0 µM
(GR)10 (normalized to GR concentration) ((GR)10 [2]; [5]): 0.0 µM
(GR)1 (normalized to GR concentration) ((GR)10 [2]; [6]): 299.3 µM
(GR)2 (normalized to GR concentration) ((GR)10 [2]; [6]): 0.0 µM
(GR)3 (normalized to GR concentration) ((GR)10 [2]; [6]): 0.0 µM
(GR)4 (normalized to GR concentration) ((GR)10 [2]; [6]): 0.0 µM
(GR)5 (normalized to GR concentration) ((GR)10 [2]; [6]): 0.0 µM
(GR)6 (normalized to GR concentration) ((GR)10 [2]; [6]): 0.0 µM
(GR)8 (normalized to GR concentration) ((GR)10 [2]; [6]): 0.0 µM
(GR)10 (normalized to GR concentration) ((GR)10 [2]; [6]): 0.0 µM
(GR)1 (normalized to GR concentration) ((GR)10 [2]; [7]): 335.6 µM
(GR)2 (normalized to GR concentration) ((GR)10 [2]; [7]): 0.0 µM
(GR)3 (normalized to GR concentration) ((GR)10 [2]; [7]): 0.0 µM
(GR)4 (normalized to GR concentration) ((GR)10 [2]; [7]): 0.0 µM
(GR)5 (normalized to GR concentration) ((GR)10 [2]; [7]): 0.0 µM
(GR)6 (normalized to GR concentration) ((GR)10 [2]; [7]): 0.0 µM
(GR)8 (normalized to GR concentration) ((GR)10 [2]; [7]): 0.0 µM
(GR)10 (normalized to GR concentration) ((GR)10 [2]; [7]): 0.0 µM
(GR)1 (normalized uM) ((GR)10 [3]; 5 min reaction): 79.8 µM
(GR)2 (normalized uM) ((GR)10 [3]; 5 min reaction): 83.2 µM
(GR)3 (normalized uM) ((GR)10 [3]; 5 min reaction): 70.5 µM
(GR)4 (normalized uM) ((GR)10 [3]; 5 min reaction): 90.8 µM
(GR)5 (normalized uM) ((GR)10 [3]; 5 min reaction): 90.5 µM
(GR)6 (normalized uM) ((GR)10 [3]; 5 min reaction): 86.4 µM
(GR)8 (normalized uM) ((GR)10 [3]; 5 min reaction): 64.8 µM
(GR)10 (normalized uM) ((GR)10 [3]; 5 min reaction): 58 µM
(GR)1 (normalized uM) ((GR)10 [3]; 60 min reaction): 458.3 µM
(GR)2 (normalized uM) ((GR)10 [3]; 60 min reaction): 409.2 µM
(GR)3 (normalized uM) ((GR)10 [3]; 60 min reaction): 85.5 µM
(GR)4 (normalized uM) ((GR)10 [3]; 60 min reaction): 21.2 µM
(GR)5 (normalized uM) ((GR)10 [3]; 60 min reaction): 3 µM
(GR)6 (normalized uM) ((GR)10 [3]; 60 min reaction): 0 µM
(GR)8 (normalized uM) ((GR)10 [3]; 60 min reaction): 0 µM
(GR)10 (normalized uM) ((GR)10 [3]; 60 min reaction): 0 µM

Reference: patent publication US11419921B2, “Methods of treating neurological disorders” (EnClear Therapies, Inc., priority 2018, dated 2022)
